Results on ten sequences are retold here after the supplement of paper PMC11246515.

± gives the standard deviation of the averaged measurements. Where only a bound is given, the exact number is not on record here.

The nature of the data set: total protein half-life in vivo (active degradation + dilution); higher = more stable protein.
Setting [1] is: E. coli NCM3722 delta-clpP delta-lon delta-hslV, growth: N-lim chemostat, doubling time 6 h.
Setting [2] is: E. coli NCM3722 delta-clpP, growth: N-lim chemostat, doubling time 6 h.
Setting [3] is: E. coli NCM3722 delta-hslV, growth: N-lim chemostat, doubling time 6 h.
[4] abbreviates: E. coli NCM3722 delta-lon, growth: N-lim chemostat, doubling time 6 h.
Setting [5] is: E. coli NCM3722 delta-smpB, growth: N-lim chemostat, doubling time 6 h.
[6] abbreviates: wild type E. coli NCM3722, growth: C-lim chemostat, doubling time 3 h.
The mark [7] stands for this setting: wild type E. coli NCM3722, growth: C-lim chemostat, doubling time 6 h.
The mark [8] stands for this setting: wild type E. coli NCM3722, growth: C-lim chemostat, doubling time 12 h.
Setting [9] is: wild type E. coli NCM3722, growth: N-lim chemostat, doubling time 6 h.
[10] abbreviates: wild type E. coli NCM3722, growth: N-lim chemostat, doubling time 12 h.
Setting [11] is: wild type E. coli NCM3722, growth: P-lim chemostat, doubling time 6 h.
Setting [12] is: wild type E. coli NCM3722, growth: P-lim chemostat, doubling time 12 h.

As for “MRIGMRLLLGYFLLVAVAAWFVLAIFVKEVKPGVRRATEGTLIDTATLLAELARPDLLSGDPTHGQLAQAFNQLQHRPFRANIGGINKVRNEYHVYMTDAQGKVLFDSANKAVGQDYSRWNDVWLTLRGQYGARSTLQNPADPESSVMYVAAPIMDGSRLIGVLSVGKPNAAMAPVIKRSERRILWASAILLGIALVIGAGMVWWINRSIARLTRYADSVTDNKPVPLPDLGSSELRKLAQALESMRVKLEGKNYIEQYVYALTHELKSPLAAIRGAAEILREGPPPEVVARFTDNILTQNARMQALVETLLRQARLENRQEVVLTAVDVAALFRRVSEARTVQLAEKKITLHVTPTEVNVAAEPALLEQALGNLLDNAIDFTPESGCITLSAEVDQEHVTLKVLDTGSGIPDYALSRIFERFYSLPRANGQKSSGLGLAFVSEVARLFNGEVTLRNVQEGGVLASLRLHRHFT”, the “total protein half-life in vivo” value is 6.22 ± 0.68 h under setting [1]; 7.24 ± 0.64 h under setting [2]; 6.18 ± 0.49 h under setting [3]; 5.7 ± 0.74 h under setting [4]; 5.49 ± 0.91 h under setting [5]; 3.16 ± 0.14 h under setting [6]. Besides, the “total protein half-life in vivo” value turned out to be 6.54 ± 1.2 h under setting [7]; 9.95 ± 2.1 h under setting [8]; 5.81 ± 0.57 h under setting [9]; 12.1 ± 0.34 h under setting [10]; 6.86 ± 0.85 h under setting [11]; 12.8 ± 1.8 h under setting [12].

Take “MSQPLNADQELVSDVVACQLVIKQILDVLDVIAPVEVREKMSSQLKNIDFTNHPAAADPVTMRAIQKAIALIELKFTPQGESH [P0AD10]”: the “total protein half-life in vivo” value reads like this: under setting [1], 5.83 ± 0.39 h; under setting [3], 5.15 h; under setting [5], 3.91 ± 0.9 h; under setting [6], 3.21 h; under setting [7], 4.53 ± 0.82 h; under setting [8], 8.31 ± 0.17 h. In addition, the “total protein half-life in vivo” value under setting [9] is 3.32 h, the “total protein half-life in vivo” value under setting [10] was found to be 6.2 h, the “total protein half-life in vivo” value under setting [11] worked out at 4.76 ± 1.4 h and the “total protein half-life in vivo” value under setting [12] worked out at 10.3 ± 0.33 h.

Turning to “MNIFTEAAKLEEQNCPFAMAQIVDSRGSTPRHSAQMLVRADGSIVGTIGGGMVERKVIEESLQALQERKPRLFHGRMARNGADAVGSDCGGAMSVFISVHGMRPRLVLIGAGHVNRAIAQSAALLGFDIAVADIYRESLNPELFPPSTTLLHAESFGAAVEALDIRPDNFVLIATNNQDREALDKLIEQPIAWLGLLASRRKVQLFLRQLREKGVAEEHIARLHAPVGYNIGAETPQEIAISVLAEILQVKNNAPGGLMMKPSHPSGHQLVVIRGAGDIASGVALRLYHAGFKVIMLEVEKPTVIRCTVAFAQAVFDGEMTVEGVTARLATSSAEAMKLTERGFIPVMVDPACSLLDELKPLCVVDAILAKQNLGTRADMAPVTIALGPGFTAGKDCHAVIETNRGHWLGQVIYSGCAQENTGVPGNIMGHTTRRVIRAPAAGIMRSNVKLGDLVKEGDVIAWIGEHEIKAPLTGMVRGLLNDGLAVVGGFKIGDIDPRGETADFTSVSDKARAIGGGVLEALMMLMHQGVKATKEVLEVA”, the “total protein half-life in vivo” value stood at 5.14 ± 0.82 h under setting [1], 1.65 ± 0.36 h under setting [2] and 1.22 h under setting [10].

For the sequence “MIHAFIKKGCFQDSVSLMIISRKLSESENVDDVSVMMGTPANKALLDTTGFWHDDFNNATPNDICVAIRSEAADAGIAQAIMQQLEEALKQLAQGSGSSQALTQVRRWDSACQKLPDANLALISVAGEYAAELANQALDRNLNVMMFSDNVTLEDEIQLKTRAREKGLLVMGPDCGTSMIAGTPLAFANVMPEGNIGVIGASGTGIQELCSQIALAGEGITHAIGLGGRDLSREVGGISALTALEMLSADEKSEVLAFVSKPPAEAVRLKIVNAMKATGKPTVALFLGYTPAVARDENVWFASSLDEAARLACLLSRVTARRNAIAPVSSGFICGLYTGGTLAAEAAGLLAGHLGVEADDTHQHGMMLDADSHQIIDLGDDFYTVGRPHPMIDPTLRNQLIADLGAKPQVRVLLLDVVIGFGATADPAASLVSAWQKACAARLDNQPLYAIATVTGTERDPQCRSQQIATLEDAGIAVVSSLPEATLLAAALIHPLSPAAQQHTPSLLENVAVINIGLRSFALELQSASKPVVHYQWSPVAGGNKKLARLLERLQ”, the “total protein half-life in vivo” value is, setting by setting: under setting [6], 2.65 h; under setting [7], 4.54 h.

On to “MRSPICHLFSAINSSPFKIAPEKEQDLKTIVDDKKIIISVVSEPGFNIRVRKNESNNSHEIVLTVASLEYIWAFSNFFWVFTQEYSKSQKNNDEHFDLTGKNRLKKSDELLKWARKNLQTTGCESWPKKCPKPEAYLQGSEDSQVASEIFLCAIAWILHHEISHVVLQHPLVTTAFSTQEEREADSHATKWILGNLYESAPELKKRALGIATAVLCIQSLEVENYFCLQNTHPAAYERIYSNISCYPVGNEELIEALCTVMLQYLFHGKNINVNLDGESFSSILGDLLCDISRLTSN”, for which the “total protein half-life in vivo” value stood at 4.49 ± 0.37 h under setting [1] and 1.26 h under setting [5].

On to “MSRNTEATDDVKTWTGGPLNYKEGFFTQLATDELAKGINEEVVRAISAKRNEPEWMLEFRLNAYRAWLEMEEPHWLKAHYDKLNYQDYSYYSAPSCGNCDDTCASEPGAVQQTGANAFLSKEVEAAFEQLGVPVREGKEVAVDAIFDSVSVATTYREKLAEQGIIFCSFGEAIHDHPELVRKYLGTVVPGNDNFFAALNAAVASDGTFIYVPKGVRCPMELSTYFRINAEKTGQFERTILVADEDSYVSYIEGCSAPVRDSYQLHAAVVEVIIHKNAEVKYSTVQNWFPGDNNTGGILNFVTKRALCEGENSKMSWTQSETGSAITWKYPSCILRGDNSIGEFYSVALTSGHQQADTGTKMIHIGKNTKSTIISKGISAGHSQNSYRGLVKIMPTATNARNFTQCDSMLIGANCGAHTFPYVECRNNSAQLEHEATTSRIGEDQLFYCLQRGISEEDAISMIVNGFCKDVFSELPLEFAVEAQKLLAISLEHSVG”, for which the “total protein half-life in vivo” value is, setting by setting: under setting [1], 4.92 ± 0.3 h; under setting [2], 2.89 ± 0.11 h; under setting [3], 1.46 ± 0.085 h; under setting [4], 1.98 ± 0.2 h; under setting [5], 1.58 ± 0.085 h; under setting [6], 1.85 ± 0.4 h. In addition, the “total protein half-life in vivo” value is, setting by setting: under setting [7], 3.12 ± 0.02 h; under setting [8], 4.99 ± 0.85 h; under setting [9], 1.51 ± 0.56 h; under setting [10], 2.29 h; under setting [11], 3.223 ± 0.00026 h; under setting [12], 5.113 ± 0.048 h.

On to “MAKSLFRALVALSFLAPLWLNAAPRVITLSPANTELAFAAGITPVGVSSYSDYPPQAQKIEQVSTWQGMNLERIVALKPDLVIAWRGGNAERQVDQLASLGIKVMWVDATSIEQIANALRQLAPWSPQPDKAEQAAQSLLDQYAQLKAQYADKPKKRVFLQFGINPPFTSGKESIQNQVLEVCGGENIFKDSRVPWPQVSREQVLARSPQAIVITGGPDQIPKIKQYWGEQLKIPVIPLTSDWFERASPRIILAAQQLCNALSQVD”, for which the “total protein half-life in vivo” value by setting is: under setting [1], 3.92 ± 0.45 h; under setting [2], 5.19 ± 0.79 h; under setting [3], 6.42 ± 0.87 h; under setting [4], 5.93 ± 0.48 h; under setting [5], 5.67 ± 0.72 h; under setting [7], 6.08 ± 0.89 h. The “total protein half-life in vivo” value was found to be 4.41 ± 0.44 h under setting [8], 5.44 ± 0.56 h under setting [9], 12.1 ± 1.3 h under setting [10] and 12.3 ± 0.33 h under setting [12].

Take “MVFRIASSPYTHNQRQTSRIMLLVLLAAVPGIAAQLWFFGWGTLVQILLASVSALLAEALVLKLRKQSVAATLKDNSALLTGLLLAVSIPPLAPWWMVVLGTVFAVIIAKQLYGGLGQNPFNPAMIGYVVLLISFPVQMTSWLPPHEIAVNIPGFIDAIQVIFSGHTASGGDMNTLRLGIDGISQATPLDTFKTSVRAGHSVEQIMQYPIYSGILAGAGWQWVNLAWLAGGVWLLWQKAIRWHIPLSFLVTLALCAMLGWLFSPETLAAPQIHLLSGATMLGAFFILTDPVTASTTNRGRLIFGALAGLLVWLIRSFGGYPDGVAFAVLLANITVPLIDYYTRPRVYGHRKG”: the “total protein half-life in vivo” value reads like this: under setting [1], 7.06 h; under setting [6], over 4 h; under setting [8], 13 ± 0.93 h; under setting [9], 6.53 h; under setting [10], 9.64 h; under setting [12], 13 ± 1.1 h.

Regarding “MSVTIQGNTSTVISNNSAPEGTSEIAKITRQIQVLTEKLGKISSEEGMTTQQKKEMAALVQKQIESLWAQLEQLLRQQAEKKNEDATVQPDKKEEKKDDTNTAGTIDIYV”, under setting [6], the “total protein half-life in vivo” value was 0.426 h.

In the case of “MDALELLINRRSASRLAEPAPTGEQLQNILRAGMRAPDHKSMQPWHFFVIEGEGRERFSAVLEQGAIAAGSDDKAIDKARNAPFRAPLIITVVAKCEENHKVPRWEQEMSAGCAVMAMQMAAVAQGFGGIWRSGALTESPVVREAFGCREQDKIVGFLYLGTPQLKASTSINVPDPTPFVTYF [P0ACY1]”, the “total protein half-life in vivo” value under setting [1] came to 5.15 ± 0.18 h; the “total protein half-life in vivo” value under setting [2] turned out to be 5.29 ± 0.85 h; the “total protein half-life in vivo” value under setting [3] was found to be 4.55 ± 0.042 h; the “total protein half-life in vivo” value under setting [4] worked out at 4.85 ± 0.25 h; the “total protein half-life in vivo” value under setting [5] came out at 4.85 ± 0.27 h; the “total protein half-life in vivo” value under setting [6] was 2.91 ± 0.03 h. Further, the “total protein half-life in vivo” value under setting [7] is 5.49 ± 0.1 h; the “total protein half-life in vivo” value under setting [8] worked out at 9.81 ± 4.2 h; the “total protein half-life in vivo” value under setting [9] is 4.7 ± 0.14 h; the “total protein half-life in vivo” value under setting [10] is 7.1 ± 0.14 h; the “total protein half-life in vivo” value under setting [11] worked out at 5.6 ± 0.17 h; the “total protein half-life in vivo” value under setting [12] stood at 11.6 ± 1.3 h.
